The supplement of paper PMC10567573

Test: protein stability index of a GFP-peptide fusion (GPS, HEK-293T) (PSI 1-6); higher = more stable
Conditions: c terminus: native
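Note: lentivirally expressed fusion library, cells FACS-sorted into six equal-sized GFP/DsRed ratio bins, PSI computed from sequencing read fractions per bin weighted by bin number.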

Q: With DGWIRVSSDNVADLHEKYSGSTPG [PSMB5 addG] as the protein, how does the protein stability index (parent: NP_002788.1) read?
A: 3

Q: Which protein stability index (parent: NP_006221.1) does the source give for CQPISFSGFGAEDDDLGGLGLGPG [POLD2 addG] here?
A: 2.37

Q: Which protein stability index (parent: NP_009172.2) does the source give for LPALFTDLYSQEITAEEAREALPG [SNF8 addG] here?
A: 2.8

Q: Which protein stability index (parent: NP_015628.1) does the source give for EQRNSRWNTVLRAVKAKTHHLEPG [TRPA1 addG] here?
A: 3.92
